This is an account of results in the nanobody polyreactivity screen of Harvey et al. (2022).

The nature of this series: yeast display, Sf9 membrane polyspecificity reagent, FACS + sequencing; frameworks hold sequencing errors. In a few lines: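 Nanobodies came from a synthetic yeast display library in Saccharomyces cerevisiae BJ5465, induced with galactose for 36–48 hours and stained for 1 hour at 4 °C with 10% biotinylated, detergent-solubilized Sf9 membrane reagent. Cells were enriched on streptavidin microbeads and then FACS-sorted, with low and high (top ~1%) gates set on anti-HA fluorescence for expression and streptavidin fluorescence for reagent binding. Each polyreactivity label reflects the gate a clone came from. Genes were amplified by colony PCR, sequenced by MiSeq 2 × 250 and filtered by CDR length.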
Regarding “QVQLVESGGGLVQAGGSLRLSCAASGGTFRNNAMGWYIQAPGKERELVAAISSSGTSTYYADSVKGRFTISRDNAKNTVYLQMNSLKPEDTAVYYCNADALGSPWWDHMDYWGQGTQVTVSS”, the “polyreactivity (PSR sort gate)” value is recorded as “low polyreactivity”.

For “QVQLVESGGGLVQAGGSLRLSCAASGGTFRRYAMGWYRQAPGKERELVAAISWTGGSTYYADSVKGRFTISRDNAKNTVYLQMNSLKPEDTGVYYCAAVGSSSSKGGYWGQGTQVTVSS”, the “polyreactivity (PSR sort gate)” value was “high polyreactivity”. Under “QVQLVESGGGLVQAGGSLRLSCAASGGTFRTYTMGWYRQAPGRVRELVAGISSRGGSTYYADSVKGRFTISRDNAKKTLYLQMNSLKPEDTAVYNCAVRHLNKRRDDYWGQGTQVTVSS” stands “high polyreactivity”. Regarding “QVQLVESGGGLVQAGGSLRLSCAASGGTFRTYVMGWYRQAPGKERELVAAISVSGGRTYYADSVKGRFTISRDNAKTTVYLQMNSLKPEDTAVYYCAAYWHGFFKYWEMGYWGQGTQVTVSS”, the “polyreactivity (PSR sort gate)” value was “high polyreactivity”.

Take “QVQLVESGGGLVQAGGSLRLSCAASGGTFRVYAMGWYRQAPGKERELFAAISSGGSTNYADSVKGRFTISRDNAKNTVYLQMNSLKPEDTAVYYCNAKYRYRFARSPIYYYWGQGTQVTVSS”: the “polyreactivity (PSR sort gate)” value is listed as “high polyreactivity”. The result for “QVQLVESGGGLVQAGGSLRLSCAASGGTFRVYAMGWYRQAPGKERELVAAITGRGGSTYYADSVKGRFTISLDNAKNTVDLQMNSLKPEDTAVYYCAKDPVTTYYKYDYWGQGTQVTVSS” reads “low polyreactivity”. Under “QVQLVESGGGLVQAGGSLRLSCAASGGTFRYNAMGWYRQAPGKERELVAAIRWSGGRTYYADSVKGRFTISRDNAKNTVFLQINSLKPEDTAVYYCAALYRGYAVAASYYLWGLGTQVTVSS” stands “high polyreactivity”. “QVQLVESGGGLVQAGGSLRLSCAASGGTFRYYAMAWYRQAPGKERELVARIRYNGGSTYYADSVKGRFTISRDNAQYTVYLQMNSLKPEDTAVYYCAGRRTGGMGYWGQGTQVTVSS”: the “polyreactivity (PSR sort gate)” value is listed as “high polyreactivity”. The result for “QVQLVESGGGLVQAGGSLRLSCAASGGTFRYYAMGWYRQAPGKERELVATINWSGGSTYADSVKGRFTISRDNAKNTVYLQMNSLKPEDTAVYYCNAGWWIPVYYWDEWYIYNYWGQGTQVTVSS” reads “high polyreactivity”.

“QVQLVESGGGLVQAGGSLRLSCAASGGTFSKNAMGWYRQAPGKEREFVAAISSTGGDTTYYADSVKGRFTISRDNAKNTVYLQMNSLKPEDTAVYYCNADYIFWPWYDYWGQGTQVTVSS”: the “polyreactivity (PSR sort gate)” value was “low polyreactivity”. The result for “QVQLVESGGGLVQAGGSLRLSCAASGGTFSKYAMGWYRQAPGKEREFVAAITVSGGGTYYADSVKGRFTISRDNAKNPVYLQMNSLKPEDTAVYYCAADLAWTASDYWGHGTQVTVSS” reads “low polyreactivity”. On to “QVQLVESGGGLVQAGGSLRLSCAASGGTFSKYAMGWYRQAPGKEREFVAAITVSGGGTYYADSVKGRFTISRDNAKNTVYLQMNSLKPEDTAVYYCAADLGWTASDYWGQGTQVTVSS”, for which the “polyreactivity (PSR sort gate)” value is listed as “low polyreactivity”.

In the case of “QVQLVESGGGLVQAGGSLRLSCAASGGTFSPYDMGWYRQAPGKERELFASITGSGGSTYYADSVKGRFTISRDNAKNTVYLQMNSLKPVDTAVYDCATQPLTWSSYRWDWRAQFDHWGQGTQVTVSS”, the “polyreactivity (PSR sort gate)” value was “low polyreactivity”. With “QVQLVESGGGLVQAGGSLRLSCAASGGTFSRYVMGWYRQAPGKERELVAAITRSGSTNYADSVKGRFTISRDNAKNTVYLQMNSLKPEDTAVYYCATDKRGRIGGTFDYWGQGTQVTVSS”, the “polyreactivity (PSR sort gate)” value is reported as “low polyreactivity”.

For “QVQLVESGGGLVQAGGSLRLSCAASGGTFSTYTMGCYRQAPGKERELVAGISGRGGSTRYADSVKGRFTISRDNAKNTVYLQMNSLKPEDTAVYYCNARKRSYWGIVFVGLYDYWGQGTQVTVSS”, the “polyreactivity (PSR sort gate)” value is reported as “high polyreactivity”. The result for “QVQLVESGGGLVQAGGSLRLSCAASGGTFSYYAMGWYRQAPGKERELVAAISKRGGSTYYADSVKGRFTISRDNAKNTVYLQMNSLKPEDTAVYYCARGYSWSVGYPRVQDMDYWGQGTQVTVSS” reads “high polyreactivity”; that for “QVQLVESGGGLVQAGGSLRLSCAASGGTFTPYDMGWYRQAPGKERELVASITGSGGSTYYADSVKGRFTISRGNAKNTVYLQMNSLKPEDTAVYYCAAQGYWTYWPYLLRLYDYWGQGTQVTVSS”, “low polyreactivity”; that for “QVQLVESGGGLVQAGGSLRLSCAASGGTFTSNAMGWYRQAPGKERELVAAISSRGGTYYADSVKGRFTISRDNAKNTVYVQMNSLKPEDTAVYYCAARGYLYSWNVSHTYDYWGQGTQVTVSS”, “high polyreactivity”.

Take “QVQLVESGGGLVQAGGSLRLSCAASGGTFVGYAMGWYRQAPGKEREFVAAISGSGGSTYYADSVKGRFTISRDNAKNTVYLQMNSLKPEDTAVYYCAARAVSRRFDYWGQGTQVTVSS”: the “polyreactivity (PSR sort gate)” value is recorded as “high polyreactivity”. On to “QVQLVESGGGLVQAGGSLRLSCAASGGTFVGYAMGWYRQAPGKERELVAAINSSGGRTYYADSVKGRFTISRDNAKNTVYLQMNSLKPEDTAVYYCAKPRTYHKDKYDYWGQGTQVTVSS”, for which the “polyreactivity (PSR sort gate)” value is reported as “high polyreactivity”. Under “QVQLVESGGGLVQAGGSLRLSCAASGGTFVHNAMGWYRQAPGKERELVAAISWSGGSTYYADSVKGRFTISRDNAKNTVYLQMNSLKPEDTAVYYCAADLPDYKDIFDSWGQGTQVTVSS” stands “low polyreactivity”; under “QVQLVESGGGLVQAGGSLRLSCAASGGTFVQYVMGWYRPAPGKERELVAAISASGGRTYYADSVKGRFTISRDNAKNSVYLQMNSLKPEDTAVDYCAAERKGSVTYEYDYWGQGTQVSVSS”, “high polyreactivity”; under “QVQLVESGGGLVQAGGSLRLSCAASGGTFVRNTMGWSRQAPGKERELVAGITKNGGSTYYADSVKGRFTISRDNAKNTVYLQMNSLKPEVTAVYYCAIYVSWPLYYYWGQGTQVTVSS”, “low polyreactivity”. Under “QVQLVESGGGLVQAGGSLRLSCAASGGTFVSYAMGWYRQAPGKERELVAAITYSGGSTYYADSVKGRFTISRDNAKNTVYLQMNSLKPEDTGVYYCAAPKFSYFSYSPRGKFKYEYWGQGTQVTVSS” stands “low polyreactivity”; under “QVQLVESGGGLVQAGGSLRLSCAASGGTFWDYAMGWYRQAPGKERELVAAITYGTASTDYADSVKGRFTISRDNAKNTVYLQMNSLKPEDTAVYYCAARWNQYPYSYSTYDYWGQGTQVTVSS”, “low polyreactivity”; under “QVQLVESGGGLVQAGGSLRLSCAASGGTFWSYAMGCYRQAPGKEREFVAAITTSAGRTNYADSVKGRFTISRDNAKNTVYLQMNSLKPEDTAVYYCAARSAYPGLGYGFDYWGQGTQVTVSS”, “low polyreactivity”. Take “QVQLVESGGGLVQAGGSLRLSCAASGGTFYANAMGWYRQAPGKERELVATITSSSGSTSYADSVKGRFTISRDNAKNTVYLQMNSLKPEDTAVYYCAKDSHAQGPYRYKHYHHTGDYWGQGTQVTVSS”: the “polyreactivity (PSR sort gate)” value is reported as “low polyreactivity”.

Take “QVQLVESGGGLVQAGGSLRLSCAASGGTFYDNDMGWYRQAPGKERELVATITYSGTSTYYADSVKGRFTISRDNAKNTVYLELNSLKTEDTAVYYCATDVLLYFEPVNLDYWGEGTQVTVSS”: the “polyreactivity (PSR sort gate)” value is recorded as “low polyreactivity”. Under “QVQLVESGGGLVQAGGSLRLSCAASGGTFYGYAMGWYRQAPGKERELVAAINYRGGRTYYADSVKGRFTISRDNAKNTVYLQMNSLKPEDTAVYDCAATSDRLDGYDYWGQGTQVTVSS” stands “high polyreactivity”. On to “QVQLVESGGGLVQAGGSLRLSCAASGGTFYIYVMGWYIQAPGKERELVAAITSGDSTNYADSVKGRFTISRDNAKNTVYLQMNSLKPEDTAVYYCATGYWELRYDYWGQGTQVTVSS”, for which the “polyreactivity (PSR sort gate)” value was “low polyreactivity”.

As to “QVQLVESGGGLVQAGGSLRLSCAASGGTFYRYAMGWYRQAPGKERELVAAISSNGGSTYYADSVKGRFTISRDNAKNTVYLQMNSLKPEDTAVYYCAAARDSIVYGQYDYWGQGTQVTVSS”, the “polyreactivity (PSR sort gate)” value is “low polyreactivity”.

On to “QVQLVESGGGLVQAGGSLRLSCAASGGTFYRYAMGWYRQAPGKERELVAAISSSGGSTYYADSVKGRFTISRNNAKNTVYLQMNSLKPEDTAVYYCAAYSFQSHNFDYWGQGTQVTVSS”, for which the “polyreactivity (PSR sort gate)” value is recorded as “high polyreactivity”.

As for “QVQLVESGGGLVQAGGSLRLSCAASGGTFYRYAMGWYRQAPGKERELVAAITDSGGSTYYADSVKGRFTISRDNAKNTVYLQMNSLKPEDTAVYYCAAEDIDYTDVTSGYEYWGQGTQVTVSS”, the “polyreactivity (PSR sort gate)” value is “high polyreactivity”.

Turning to “QVQLVESGGGLVQAGGSLRLSCAASGGTFYSYAMGWYRQAPGKERELVAAISRRGGSTYYADSVKGRFTISRDNAKNTVYLQMNSLKPEDTAVYYCNTYIYQVRDDYWGQGTQVTVSS”, the “polyreactivity (PSR sort gate)” value was “high polyreactivity”. As for “QVQLVESGGGLVQAGGSLRLSCAASGGTFYTNVMGWYREAPGKERELVAAITRSGGSTHYADSVKGRFTISRDNAKNTVYLQMNSLKPEDTAVYYCAVGSPYYDGMDYWGQGTQVTVSS”, the “polyreactivity (PSR sort gate)” value is listed as “low polyreactivity”. Under “QVQLVESGGGLVQAGGSLRLSCAASGGTFYTNVMGWYRQAPGKERELVAAITRSGGSTHYADSVKGRFTISRDNAKNTVYLQMNSLKPEDTAVYYCAKDRVGEMYYWGQGTQVTVSS” stands “low polyreactivity”; under “QVQLVESGGGLVQAGGSLRLSCAASGGTIAYAMGWYRQAPGKERELVAAISKHGGRTYYADSVKGRFTISRDNAKNTVYLQMNSLKPEDSAVYYCAADAFRGFYWGQGTQVTVSS”, “high polyreactivity”; under “QVQLVESGGGLVQAGGSLRLSCAASGGTLASYAMGRYRQATGKERELVAAITRGGGSTHYADSVKGRFTISRDNAKNTVYLQMNSLKPADTAVYYCNARVRPGYGYWGQGTQVTVSS”, “high polyreactivity”.

Take “QVQLVESGGGLVQAGGSLRLSCAASGGTLAYYAMGWYRQAPGKERELVAAITRSGGSTYYADSVKGRFTISRDNAKNTVYLQMNSLKPEDTAVYYCAALLAYCKNRWHIEYDYWGQGTQVTVSS”: the “polyreactivity (PSR sort gate)” value is reported as “low polyreactivity”. “QVQLVESGGGLVQAGGSLRLSCAASGGTLDVYAMGWYRQAPGKEREFVAAISWSGGRTYYADSVKGRFTISRDNAKNTVYLQMHSLKPEDTAVYYCATRDRAGYYYWGQGTQVTVSS”: the “polyreactivity (PSR sort gate)” value was “high polyreactivity”. On to “QVQLVESGGGLVQAGGSLRLSCAASGGTLYTYAMGWYRQAPGKEWEFVAAITVSGGRTYYADSVKGRFPISRDNAKNTVYLQINSLKPEDTAVYYCAARYWSWRSFKVDYWGQGTQVTVSS”, for which the “polyreactivity (PSR sort gate)” value is on record as “high polyreactivity”.
